{"source": "paper PMC4102244", "about": "“Molecular mechanism for Rabex-5 GEF activation by Rabaptin-5” (eLife, 2014)", "key": {"[1]": {"biological_target": "Rab5-Rabex-5-Rabaptin-5C21 (R3) complex (human) (UniProt P20339)", "test": "SAXS; purified R2, R2Δ, R3 and R3Δ complexes at 5 mg/ml in 20 mM Tris–HCl (pH 8.0), 150 mM NaCl, 293 K"}, "[2]": {"biological_target": "Rabex-5-Rabaptin-5C21 (R2) complex (human) (UniProt Q15276)", "test": "SAXS; purified R2, R2Δ, R3 and R3Δ complexes at 5 mg/ml in 20 mM Tris–HCl (pH 8.0), 150 mM NaCl, 293 K"}, "[3]": {"biological_target": "the molecule itself", "test": "crystal structure; Rabex-5Δ-Rabaptin-5C21_(2) (R2Δ) complex, 3.10 Å; hanging drop, 16°C, 2.0 M NaH2PO4/K2HPO4 (pH 7.0), 0.05% n-octyl-β-D-galactopyranoside"}}, "data": [{"molecule": "Rab5-Rabex-5-Rabaptin-5C21 (R3) complex (from UniProt P20339 15-184; Q15276 552-642)", "values": [{"measurement": "stoichiometry N", "setting": "[1]", "value": 2}]}, {"molecule": "Rabex-5-Rabaptin-5C21 (R2) complex (from UniProt Q15276 552-642)", "values": [{"measurement": "stoichiometry N", "setting": "[2]", "value": 2}]}, {"molecule": "Rabaptin-5 C2-1 domain (residues 552–642) (domain or fragment, human, UniProt Q15276 552-642, looked up, Rabaptin-5, human, C2-1 domain, residues 552-642; In pET-Duet1 a tag is stated only for the Rabex-5 partner; also called Rabaptin-5C21_(2)) ETRDQVKKLQLMLRQANDQLEKTMKDKQELEDFIKQSSEDSSHQISALVLRAQASEILLEELQQGLSQAKRDVQEQMAVLMQSREQVSEEL", "values": [{"measurement": "binding result", "setting": "[3]", "value": "binds"}]}]}
